# According to patent EP4772193A1 (Teijin Pharma Limited, dated 2026):
# Where a chain is given by its changes, count along the chain named. In names and notes the source's numbering stands.
# T1: recombinant human soluble gpNMB (recombinant human gpNMB-FLAG-His) (human, UniProt Q14956 23-498)
# T1 sequence: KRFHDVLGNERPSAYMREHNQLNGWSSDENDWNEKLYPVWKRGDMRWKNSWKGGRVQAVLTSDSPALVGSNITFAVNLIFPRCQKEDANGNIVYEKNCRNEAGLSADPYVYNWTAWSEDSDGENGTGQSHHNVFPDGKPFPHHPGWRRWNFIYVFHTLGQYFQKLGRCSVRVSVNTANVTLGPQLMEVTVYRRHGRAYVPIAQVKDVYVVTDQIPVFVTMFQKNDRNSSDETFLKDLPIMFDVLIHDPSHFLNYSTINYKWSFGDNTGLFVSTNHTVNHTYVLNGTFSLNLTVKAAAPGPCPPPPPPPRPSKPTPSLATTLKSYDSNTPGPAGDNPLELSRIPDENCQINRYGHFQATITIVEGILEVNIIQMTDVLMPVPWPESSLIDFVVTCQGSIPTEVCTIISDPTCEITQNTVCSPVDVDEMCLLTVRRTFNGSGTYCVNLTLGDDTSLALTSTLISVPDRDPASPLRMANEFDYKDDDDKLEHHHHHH
# B1: hGPN06-1_H1L1 VL H33A (antibody, V domains shown)
# VH: QVQLVQSGAEVKKPGASVKVSCKASGYTFTDNWMGWVKQRPGQGLEWIGAIDPSDSFTNYNQNFKGRVTMTVDTSISTAYMELSRLRSDDSAVYFCTRSGYYGSPKLGGDYWGQGTLVTVSS
# VL: EIVLTQSPSSLSASVGDRVTITCSASSSISYMAWYQQKSGTAPKLLIYSTSNLASGVPSRFSGSGSGTDFTFTISSLQPEDAATYYCHQWNSYPCTFGGGTKLEIK
# B2: hGPN06-1_H1L1 VL P94A (antibody, V domains shown)
# VH: B1 VH
# VL: B1 VL with A33H, P94A
# B3: hGPN06-1_H1L1 VL Q89A (antibody, V domains shown)
# VH: B1 VH
# VL: B1 VL with A33H, Q89A
# B4: hGPN06-1_H1L1 VL S30A (antibody, V domains shown)
# VH: B1 VH
# VL: B1 VL with S30A, A33H
# B5: hGPN06-1_H1L1 VL N52A (antibody, V domains shown)
# VH: B1 VH
# VL: B1 VL with A33H, N52A
# B6: hGPN06-1_H1L1 VL S49A (antibody, V domains shown)
# VH: B1 VH
# VL: B1 VL with A33H, S49A
# B7: hGPN06-1_H1L1 VL S27A (antibody, V domains shown)
# VH: B1 VH
# VL: B1 VL with S27A, A33H
# B8: hGPN06-1_H1L1 VL M32A (antibody, V domains shown)
# VH: B1 VH
# VL: B1 VL with M32A, A33H
# B9: hGPN06-1_H1L1 VL S55A (antibody, V domains shown)
# VH: B1 VH
# VL: B1 VL with A33H, S55A
# B10: hGPN06-1_H1L1 VL N91A (antibody, V domains shown)
# VH: B1 VH
# VL: B1 VL with A33H, N91A
# B11: hGPN06-1_H1L1 VL S51A (antibody, V domains shown)
# VH: B1 VH
# VL: B1 VL with A33H, S51A
# B12: hGPN06-1_H1L1 VL S26A (antibody, V domains shown)
# VH: B1 VH
# VL: B1 VL with S26A, A33H
# B13: hGPN06-1_H1L1 VL H88A (antibody, V domains shown)
# VH: B1 VH
# VL: B1 VL with A33H, H88A
# B14: hGPN06-1_H1L1 VL S24A (antibody, V domains shown)
# VH: B1 VH
# VL: B1 VL with S24A, A33H
# B15: hGPN06-1_H1L1 VL I29A (antibody, V domains shown)
# VH: B1 VH
# VL: B1 VL with I29A, A33H
# B16: hGPN06-1_H1L1 VL C95A (antibody, V domains shown)
# VH: B1 VH
# VL: B1 VL with A33H, C95A
# B17: hGPN06-1_H1L1 VL L53A (antibody, V domains shown)
# VH: B1 VH
# VL: B1 VL with A33H, L53A
# B18: hGPN06-1_H1L1 VL S28A (antibody, V domains shown)
# VH: B1 VH
# VL: B1 VL with S28A, A33H
# B19: hGPN06-1_H1L1 VH G35A (antibody, V domains shown)
# VH: B1 VH with G35A
# VL: B1 VL with A33H
# B20: hGPN06-1_H1L1 VH S56A (antibody, V domains shown)
# VH: B1 VH with S56A
# VL: B1 VL with A33H
# B21: hGPN06-1_H1L1 VH Y60A (antibody, V domains shown)
# VH: B1 VH with Y60A
# VL: B1 VL with A33H
# B22: hGPN06-1_H1L1 VH K65A (antibody, V domains shown)
# VH: B1 VH with K65A
# VL: B1 VL with A33H
# B23: hGPN06-1_H1L1 VH W33A (antibody, V domains shown)
# VH: B1 VH with W33A
# VL: B1 VL with A33H
# B24: hGPN06-1_H1L1 VH I51A (antibody, V domains shown)
# VH: B1 VH with I51A
# VL: B1 VL with A33H
# B25: hGPN06-1_H1L1 VH P53A (antibody, V domains shown)
# VH: B1 VH with P53A
# VL: B1 VL with A33H
# B26: hGPN06-1_H1L1 VH N61A (antibody, V domains shown)
# VH: B1 VH with N61A
# VL: B1 VL with A33H
# B27: hGPN06-1_H1L1 VH M34A (antibody, V domains shown)
# VH: B1 VH with M34A
# VL: B1 VL with A33H
# B28: hGPN06-1_H1L1 VH T58A (antibody, V domains shown)
# VH: B1 VH with T58A
# VL: B1 VL with A33H
# B29: hGPN06-1_H1L1 VH T30A (antibody, V domains shown)
# VH: B1 VH with T30A
# VL: B1 VL with A33H
# B30: hGPN06-1_H1L1 VH N59A (antibody, V domains shown)
# VH: B1 VH with N59A
# VL: B1 VL with A33H
# B31: hGPN06-1_H1L1 VH G66A (antibody, V domains shown)
# VH: B1 VH with G66A
# VL: B1 VL with A33H
# B32: hGPN06-1_H1L1 VH N63A (antibody, V domains shown)
# VH: B1 VH with N63A
# VL: B1 VL with A33H
# B33: hGPN06-1_H1L1 VH N32A (antibody, V domains shown)
# VH: B1 VH with N32A
# VL: B1 VL with A33H
# B34: hGPN06-1_H1L1 VH Y27A (antibody, V domains shown)
# VH: B1 VH with Y27A
# VL: B1 VL with A33H
# B35: hGPN06-1_H1L1 VH S54A (antibody, V domains shown)
# VH: B1 VH with S54A
# VL: B1 VL with A33H
# B36: hGPN06-1_H1L1 VH T28A (antibody, V domains shown)
# VH: B1 VH with T28A
# VL: B1 VL with A33H
# B37: hGPN06-1_H1L1 VH Q62A (antibody, V domains shown)
# VH: B1 VH with Q62A
# VL: B1 VL with A33H
# Target: T1, recombinant human soluble gpNMB …
# Test: antigen ELISA
row,EC50,Binder
1,42.9 nM,B1
2,26.4 nM,B2
3,27.5 nM,B3
4,8.63 nM,B4
5,0.85 nM,B5
6,0.7 nM,B6
7,1.56 nM,B7
8,6.4 nM,B8
9,0.603 nM,B9
10,1.84 nM,B10
11,0.927 nM,B11
12,1.09 nM,B12
13,147 nM,B13
14,1.99 nM,B14
15,23 nM,B15
16,3.15 nM,B16
17,0.564 nM,B17
18,1.27 nM,B18

# Target: T1, recombinant human soluble gpNMB …
# Test: antigen ELISA
# Remark: another data set of the same source
row,EC50,Binder
1,3.55 nM,B19
2,0.429 nM,B20
3,128 nM,B21
4,0.406 nM,B22
5,28.1 nM,B23
6,0.993 nM,B24
7,0.801 nM,B25
8,26.1 nM,B26
9,3.55 nM,B27
10,28 nM,B28
11,2.02 nM,B29
12,29.4 nM,B30
13,0.373 nM,B31
14,0.439 nM,B32
15,7.83 nM,B33
16,69.9 nM,B34
17,0.652 nM,B35
18,1.98 nM,B36
19,0.406 nM,B37

# Target: T1, recombinant human soluble gpNMB …
# Test: antigen ELISA, vs hGPN06-1_H1L1
row,Relative binding activity,Binder
1,0.28,B1
2,0.05,B2
3,0.06,B3
4,0.58,B4
5,0.74,B5
6,0.79,B6
7,0.99,B7
8,0.65,B8
9,1,B9
10,0.58,B10
11,0.82,B11
12,0.75,B12
13,0.08,B13
14,0.98,B14
15,0.27,B15
16,0.45,B16
17,0.98,B17
18,1.18,B18

# Target: T1, recombinant human soluble gpNMB …
# Test: antigen ELISA, vs hGPN06-1_H1L1
# Remark: another data set of the same source
row,Relative binding activity,Binder
1,1.4,B19
2,1.14,B20
3,0.04,B21
4,1.1,B22
5,0.06,B23
6,0.89,B24
7,0.85,B25
8,0.04,B26
9,1.06,B27
10,0.04,B28
11,1.23,B29
12,0.04,B30
13,1.09,B31
14,1.07,B32
15,0.35,B33
16,0.02,B34
17,0.92,B35
18,1.49,B36
19,1.14,B37
